Data as given in patent US20200079850A1 (SUTRO BIOPHARMA, published 2020).

T1: human LAG3 expressed on the cell surface (CHO-LAG3, 293T-LAG3 cells) (human, UniProt P18627 23-525)
T1 construct: Stably transfected CHO or HEK293T cells; also called Human LAG3 (CHO); Human LAG3 (293T)
T1 sequence: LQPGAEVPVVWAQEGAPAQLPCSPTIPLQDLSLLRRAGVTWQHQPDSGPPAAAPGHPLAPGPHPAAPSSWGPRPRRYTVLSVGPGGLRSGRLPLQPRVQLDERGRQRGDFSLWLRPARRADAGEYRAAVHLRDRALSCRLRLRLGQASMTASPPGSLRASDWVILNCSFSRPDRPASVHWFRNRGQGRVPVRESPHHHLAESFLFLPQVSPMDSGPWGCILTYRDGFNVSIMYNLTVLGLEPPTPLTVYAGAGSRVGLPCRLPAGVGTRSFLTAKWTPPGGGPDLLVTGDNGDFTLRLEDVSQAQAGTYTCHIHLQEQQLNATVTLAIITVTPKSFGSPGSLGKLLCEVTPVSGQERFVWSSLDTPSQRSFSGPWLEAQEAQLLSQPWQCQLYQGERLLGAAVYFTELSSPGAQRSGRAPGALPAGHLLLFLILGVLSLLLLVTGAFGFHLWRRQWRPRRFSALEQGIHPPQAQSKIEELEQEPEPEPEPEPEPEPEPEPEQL

T2: recombinant human LAG3 protein (rhLAG3), HIS-tagged (ACRO) or biotinylated (R&D Cat #2319-C3) (human, UniProt P18627 23-450, biotinylated in part of the assays)
T2 sequence: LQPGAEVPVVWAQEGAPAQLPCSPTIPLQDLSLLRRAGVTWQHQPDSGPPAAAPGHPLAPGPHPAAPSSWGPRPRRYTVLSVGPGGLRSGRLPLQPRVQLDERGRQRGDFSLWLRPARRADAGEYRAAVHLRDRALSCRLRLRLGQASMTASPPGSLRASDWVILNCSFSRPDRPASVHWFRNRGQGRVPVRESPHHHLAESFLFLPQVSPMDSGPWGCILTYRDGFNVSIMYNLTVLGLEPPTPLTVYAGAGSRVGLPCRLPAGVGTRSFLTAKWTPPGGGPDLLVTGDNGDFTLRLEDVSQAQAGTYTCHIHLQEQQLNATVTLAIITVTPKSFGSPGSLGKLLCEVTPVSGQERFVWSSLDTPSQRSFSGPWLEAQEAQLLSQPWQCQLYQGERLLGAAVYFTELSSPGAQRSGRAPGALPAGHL


Columns and labels:
[1] = biological target: T1, human LAG3 expressed on the cell …; experiment: flow cytometry cell binding on CHO cells expressing human LAG3; PE anti-human IgG detection; one site-specific binding with Hill slope fit
Experimental: CHO-k cells stably expressing PD-1 or LAG3 (human or cynomolgus) on the cell surface were used to assess binding affinity of anti-PD-1/LAG3 bispecific antibody constructs. Cells were seeded at 100,000 cells/well in 100 μL of FACS buffer (1×PBS, 0.5% BSA, 0.1% sodium azide) in 96-well polypropylene plates. The cells were centrifuged at 1.5K rpm and resuspended with test antibodies diluted in FACS buffer and incubated on ice for 1 hour. The cells were washed twice with FACS buffer and incubated on ice for 30 mins with R-Phycoerythrin-AffiniPure F(ab′)2 Fragment Goat Anti-Human IgG (H+L) secondary detection antibody (1:200 dilution, Jackson ImmunoResearch Laboratories, West Grove, Pa.). The cells were washed twice with FACS buffer, fixed in 4% paraformaldehyde in PBS (Santa Cruz Biotechnology; Dallas, Tex.) for 20 mins on ice in the dark, washed twice with FACS buffer, and analyzed using the BD LSR II Flow Cytometer (BD Biosciences; San Jose, Calif.). Data were analyzed using FlowJo (FlowJo, LLC; Ashland, Oreg.) to determine mean fluorescence intensities. Binding constants were calculated using the statistical software, GraphPad Prism (GraphPad Software; La Jolla, Calif.) using the nonlinear regression equation, one site—specific binding with Hill slope. The secondary antibody by itself was used as a control.

[2] = biological target: LAG3 (residues 1-477) C-terminally fused to the beta-galactosidase ProLink (PK) fragment, on U2OS cells (human); experiment: cell-based or functional assay
[3] = biological target: PD-1 (residues 1-199) C-terminally fused to the beta-galactosidase enzyme acceptor (EA) fragment, on U2OS … (human, UniProt Q15116 25-199); experiment: cell-based or functional assay
[4] = biological target: T2, recombinant human LAG3 protein …; experiment: flow cytometry competition: inhibition of biotinylated rhLAG3 binding to MHC class II on Daudi cells; PE-streptavidin detection
Experimental: Daudi cells expressing Major Histocompatibility Class II (MHCII) molecules, the natural ligand for LAG3, were used to measure the ability of anti-PD1/LAG3 bi-specific antibody constructs to block biotinylated (ThermoFisher, Cat #21329) recombinant human LAG3 protein (rhLAG3, R&D Cat #2319-C3) binding. Cells were seeded at 100,000 cells/well in 100 μL of FACS buffer in 96-well polypropylene plates. The cells were centrifuged and resuspended with test antibodies (2× concentration) diluted in FACS buffer, immediately followed by equal volume of biotinylated rhLAG3 (added at 2× concentration; 7.5 μg/mL final). Cells were incubated on ice for 1 hour and washed twice. Biotinylated rhLAG3 binding was detected with 2 μg/mL R-Phycoerythrin-conjugated Streptavidin (eBioscience) for 30 minutes. Cells were washed twice with FACS buffer, fixed in 4% paraformaldehyde in PBS for 20 mins on ice in the dark, washed twice with FACS buffer, and analyzed using the BD LSR II Flow Cytometer. Data were analyzed using FlowJo (FlowJo, LLC; Ashland, Oreg.) to determine mean fluorescence intensities. Prism 6 software was used to create one site, specific binding with Hill slope curves (Log transform) to determine IC₅₀ values. […]

Sequence of LAG3 (residues 1-477) C-terminally fused to the beta-galactosidase ProLink (PK) fragment, on U2OS cells (human) (P18627 1-477): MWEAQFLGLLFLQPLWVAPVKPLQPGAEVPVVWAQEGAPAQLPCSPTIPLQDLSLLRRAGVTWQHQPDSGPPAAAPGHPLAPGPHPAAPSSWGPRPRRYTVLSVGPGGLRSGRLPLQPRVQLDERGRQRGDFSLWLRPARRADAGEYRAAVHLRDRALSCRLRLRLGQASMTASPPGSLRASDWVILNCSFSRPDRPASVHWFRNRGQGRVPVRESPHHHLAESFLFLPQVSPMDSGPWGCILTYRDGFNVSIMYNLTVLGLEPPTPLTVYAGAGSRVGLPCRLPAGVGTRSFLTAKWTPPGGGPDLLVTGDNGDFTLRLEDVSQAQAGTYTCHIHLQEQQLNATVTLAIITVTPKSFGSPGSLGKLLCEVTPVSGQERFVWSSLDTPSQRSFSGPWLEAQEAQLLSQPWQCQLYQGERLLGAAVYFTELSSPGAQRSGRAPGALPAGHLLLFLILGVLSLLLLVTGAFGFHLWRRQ

Bmax [1] [MFI]	Kd [1] [nM]	EC50 of beta-galactosidase enzyme-fragment complementation (RLU) on U2OS cells co-expressing PD-1-EA and LAG3-PK; PD-1/LAG3 cell bridging, needs both targets [2] [nM]	EC50 of beta-galactosidase enzyme-fragment complementation (RLU) on U2OS cells co-expressing PD-1-EA and LAG3-PK; PD-1/LAG3 cell bridging, needs both targets [3] [nM]	IC50 [4] [nM]	Binder
1020	0.5	0.13	0.13	24	PD-1/LAG3 Bi-specific Construct C: aPD1 1353-G10 Vk1-39LC scFvFc zwB V262E; aLAG3 1449-G09.2 Fab zwA V262E (bispecific antibody, human IgG1, kappa, The N-terminal Met is not included) scFv: EVQLVQSGAEVKKPGASVKVSCKASGYRFPHYGISWVRQAPGQGLEWMGWISAYNGNTNYAQKLQGRVTMTTDTSTNTAYMELRSLRSDDTAVYYCARDVDYGTGSGYWGQGTLVTVSSGGGGSGGGGSGGGGSDIQLTQSPSSLSASVGDRVTITCSGDALPKQYAYWYQQKPGKAPKLLIYKDTERPSGVPSRFSGSSSGTKVTLTISSLQPEDFATYYCQSADNSITYRVFGGGTKVEIKAAGSDQEPKSSDKTHTCPPCPAPELLGGPSVFLFPPKPKDTLMISRTPEVTCEVVDVSHEDPEVKFNWYVDGVEVHNAKTKPREEQYNSTYRVVSVLTVLHQDWLNGKEYKCKVSNKALPAPIEKTISKAKGQPREPQVYVLPPSREEMTKNQVSLLCLVKGFYPSDIAVEWESNGQPENNYLTWPPVLDSDGSFFLYSKLTVDKSRWQQGNVFSCSVMHEALHNHYTQKSLSLSPGK heavy: not shown light: not shown
975	0.4	0.16	0.16	24	PD-1/LAG3 Bi-specific Construct B: aPD1 1353-G10 scFvFc zwB R28T/P30D/H31S V262E; aLAG3 1449-G09.2 Fab zwA V262E (bispecific antibody, human IgG1, kappa, The N-terminal Met is not included) scFv: EVQLVQSGAEVKKPGASVKVSCKASGYTFDSYGISWVRQAPGQGLEWMGWISAYNGNTNYAQKLQGRVTMTTDTSTNTAYMELRSLRSDDTAVYYCARDVDYGTGSGYWGQGTLVTVSSGGGGSGGGGSGGGGSSYELTQPPSVSVSPGQTARITCSGDALPKQYAYWYQQKPGQAPVMVIYKDTERPSGIPERFSGSSSGTKVTLTISGVQAEDEADYYCQSADNSITYRVFGGGTKVTVLAAGSDQEPKSSDKTHTCPPCPAPELLGGPSVFLFPPKPKDTLMISRTPEVTCEVVDVSHEDPEVKFNWYVDGVEVHNAKTKPREEQYNSTYRVVSVLTVLHQDWLNGKEYKCKVSNKALPAPIEKTISKAKGQPREPQVYVLPPSREEMTKNQVSLLCLVKGFYPSDIAVEWESNGQPENNYLTWPPVLDSDGSFFLYSKLTVDKSRWQQGNVFSCSVMHEALHNHYTQKSLSLSPGK heavy: not shown light: not shown
